Molecular target: T1, DsbA protein of Escherichia coli (protein encoded by the dsbA gene) (Escherichia coli, UniProt P0AEG4 20-208, free cysteine thiols labelled with AMS (4-acetamido-4'-maleimidyl-stilbene-2,2'-disulfonate) before electrophoresis)
T1 construct: Endogenous periplasmic DsbA of E. coli BW25113, detected in cell lysates; also called disulfide oxidoreductase
T1 sequence: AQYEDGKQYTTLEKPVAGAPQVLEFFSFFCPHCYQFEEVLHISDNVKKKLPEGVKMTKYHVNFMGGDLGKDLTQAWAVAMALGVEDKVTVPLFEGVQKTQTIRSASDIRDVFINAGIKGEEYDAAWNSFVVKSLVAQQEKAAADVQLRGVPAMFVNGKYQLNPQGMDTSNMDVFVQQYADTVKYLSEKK
Assay: AMS modification, non-reducing SDS-PAGE and Western blot with anti-DsbA serum; wild-type E. coli BW25113 exposed to 5 mM cysteine

B1: DsbB (enzyme)
chain: MLRFLNQCSQGRGAWLLMAFTALALELTALWFQHVMLLKPCVLCIYERCALFGVLGAALIGAIAPKTPLRYVAMVIWLYSAFRGVQLTYEHTMLQLYPSPFATCDFMVRFPEWLPLDKWVPQVFVASGDCAERQWDFLGLEMPQWLLGIFIAYLIVAVLVVISQPFKAKKRDLFGR
notes: Endogenous protein in the wild-type strain, seen only as the DsbA-DsbB complex band on the anti-DsbA Western blot; also called intracellular membrane protein DsbB
binding result: binds
